Assay [1] deals with T1, recombinant human CD25 his tagged (UniProt P01589 22-240).
T1 chain: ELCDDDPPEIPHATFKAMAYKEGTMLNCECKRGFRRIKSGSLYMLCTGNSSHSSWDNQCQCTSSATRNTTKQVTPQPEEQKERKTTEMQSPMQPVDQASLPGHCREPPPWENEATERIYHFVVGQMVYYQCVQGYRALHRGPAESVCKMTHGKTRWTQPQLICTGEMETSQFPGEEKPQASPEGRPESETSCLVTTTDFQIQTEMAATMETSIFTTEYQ
In words: SPR (Biacore 2000). On the technique in general: In SPR one partner is held on a chip, and binding of the other changes the refractive index at the surface.

The target in assay [2] is T1, recombinant human CD25 his tagged. The assay is described as follows: SPR (Biacore 2000).
Assay [3] has the same target. The assay is described as follows: SPR (Biacore 2000).
For assay [4] the target is unchanged. The assay is described as follows: SPR (Biacore 2000).
Assay [5] has as its target T2, recombinant human CD25 his tagged (human, UniProt P01589 22-240, limits assumed).
T2 construct: also called rhCD25 his tagged; rhCD25; not shown: his tag
T2 sequence: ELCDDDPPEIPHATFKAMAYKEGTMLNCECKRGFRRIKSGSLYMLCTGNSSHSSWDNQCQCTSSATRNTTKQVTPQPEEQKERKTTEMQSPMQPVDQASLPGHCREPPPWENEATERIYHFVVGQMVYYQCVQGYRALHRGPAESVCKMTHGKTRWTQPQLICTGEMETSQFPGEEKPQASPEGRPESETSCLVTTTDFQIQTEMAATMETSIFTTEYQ
The assay is described as follows: Octet sequential binding, rhCD25 his tagged on Ni-NTA biosensors, first antibody.

Read-outs that look alike come from different tables or passages of the source.

B1: Antibody 7 (antibody, V domains shown)
VH: QVQLQESGPGLVKPSETLSLTCTVSGFSLTSYGIQWVRQPPGKGLEWIGVIWAGGSTNYNSALMSRVTISKDNSKSQFSLKLSSVTAADTAVYYCARAYGYDGSWLAYWGQGTLVTVSS
VL: DIQMTQSPSSLSASVGDRVTITCRASSSVSYMHWYQQKPGKAPKPLIFATSNLASGVPSRFSGSGSGTDYTLTISSLQPEDFATYYCQQWSSNPPTFGGGTKLEIK
Usually Kd stands for a measure of binding affinity in units of concentration. Take B1: the Kd in assay [1] came out at 2.1 nM.

B2: Antibody 4 (antibody, V domains shown)
VH: QVQLQESGPGLVKPSETLSLTCTVSGFSLTSYGIQWIRQPPGKGLEWIGVIWAGGSTNYNSALMSRVTISKDNSKNQFSLKLSSVTAADTAVYYCARAYGYDGSWLAYWGQGTLVTVSS
VL: QIQLTQSPSSLSASVGDRVTITCRASSSVSYMHWYQQKPGKSPKPLIFATSNLASGVPSRFSGSGSGTDYTLTISSLQPEDFATYYCQQWSSNPPTFGGGTKLEIK
As to B2, the Kd in assay [2] was found to be 1.1 nM.

B3: Antibody 2 (antibody, V domains shown)
VH: QVQLQESGPGLVKPSETLSLTCTVSGFSLTSYGIQWIRQPPGKGLEWIGVIWAGGSTNYNSALMSRVTISKDNSKNQFSLKLSSVTAADTAVYYCARAYGYDGSWLAYWGQGTLVTVSS
VL: QIVLTQSPATLSLSPGERATLSCRASSSVSYMHWYQQKPGQAPRPLIFATSNLASGIPARFSGSGSGTDYTLTISSLEPEDFAVYYCQQWSSNPPTFGGGTKLEIK
B3: in assay [3], the Kd came out at 4.8 nM.

B4: Antibody 12 (antibody, V domains shown)
VH: QVQLVESGGGVVQPGGSLRLSCAVSGFSLTSYGIQWVRQAPGKGLEWVSVIWAGGSTNYNSALMSRFTISKDNSKSTLYLQMNSLRAEDTAVYYCARAYGYDGSWLAYWGQGTLVTVSS
VL: QIQLTQSPSSLSASVGDRVTITCRASSSVSYMHWYQQKPGKSPKPLIFATSNLASGVPSRFSGSGSGTDYTLTISSLQPEDFATYYCQQWSSNPPTFGGGTKLEIK
As to B4, the Kd in assay [4] came to 6.9 nM.

B5: Antibody 1 (antibody, V domains shown)
VH: QVQLQESGPGLVKPSETLSLTCTVSGFSLTSYGIQWIRQPPGKGLEWIGVIWAGGSTNYNSALMSRVTISKDNSKNQFSLKLSSVTAADTAVYYCARAYGYDGSWLAYWGQGTLVTVSS
VL: EIVLTQSPATLSLSPGERATLSCRASSSVSYMHWYQQKPGQAPRPLIFATSNLASGIPARFSGSGSGTDFTLTISSLEPEDFAVYYCQQWSSNPPTFGGGTKLEIK
As to B5, the Kd in assay [3] was found to be 1.2 nM.

B6: Antibody 3 (antibody, V domains shown)
VH: QVQLQESGPGLVKPSETLSLTCTVSGFSLTSYGIQWIRQPPGKGLEWIGVIWAGGSTNYNSALMSRVTISKDNSKNQFSLKLSSVTAADTAVYYCARAYGYDGSWLAYWGQGTLVTVSS
VL: DIQMTQSPSSLSASVGDRVTITCRASSSVSYMHWYQQKPGKAPKPLIFATSNLASGVPSRFSGSGSGTDYTLTISSLQPEDFATYYCQQWSSNPPTFGGGTKLEIK
As for B6, in assay [3], the Kd amounted to 0.3 nM.

B7: Antibody 5 (antibody, V domains shown)
VH: QVQLQESGPGLVKPSETLSLTCTVSGFSLTSYGIQWVRQPPGKGLEWIGVIWAGGSTNYNSALMSRVTISKDNSKSQFSLKLSSVTAADTAVYYCARAYGYDGSWLAYWGQGTLVTVSS
VL: EIVLTQSPATLSLSPGERATLSCRASSSVSYMHWYQQKPGQAPRPLIFATSNLASGIPARFSGSGSGTDFTLTISSLEPEDFAVYYCQQWSSNPPTFGGGTKLEIK
As to B7, in assay [2], the Kd is 2.6 nM.

B8: Antibody 11 (antibody, V domains shown)
VH: QVQLVESGGGVVQPGGSLRLSCAVSGFSLTSYGIQWVRQAPGKGLEWVSVIWAGGSTNYNSALMSRFTISKDNSKSTLYLQMNSLRAEDTAVYYCARAYGYDGSWLAYWGQGTLVTVSS
VL: DIQMTQSPSSLSASVGDRVTITCRASSSVSYMHWYQQKPGKAPKPLIFATSNLASGVPSRFSGSGSGTDYTLTISSLQPEDFATYYCQQWSSNPPTFGGGTKLEIK
With B8, the equilibrium dissociation constant (Kd) in assay [4] is 10.2 nM.

B9: Antibody 6 (antibody, V domains shown)
VH: QVQLQESGPGLVKPSETLSLTCTVSGFSLTSYGIQWVRQPPGKGLEWIGVIWAGGSTNYNSALMSRVTISKDNSKSQFSLKLSSVTAADTAVYYCARAYGYDGSWLAYWGQGTLVTVSS
VL: QIVLTQSPATLSLSPGERATLSCRASSSVSYMHWYQQKPGQAPRPLIFATSNLASGIPARFSGSGSGTDYTLTISSLEPEDFAVYYCQQWSSNPPTFGGGTKLEIK
With B9, the Kd in assay [2] turned out to be 2.9 nM.

B10: Antibody 8 (antibody, V domains shown)
VH: QVQLQESGPGLVKPSETLSLTCTVSGFSLTSYGIQWVRQPPGKGLEWIGVIWAGGSTNYNSALMSRVTISKDNSKSQFSLKLSSVTAADTAVYYCARAYGYDGSWLAYWGQGTLVTVSS
VL: QIQLTQSPSSLSASVGDRVTITCRASSSVSYMHWYQQKPGKSPKPLIFATSNLASGVPSRFSGSGSGTDYTLTISSLQPEDFATYYCQQWSSNPPTFGGGTKLEIK
Turning to B10, the Kd in assay [1] is 1.7 nM.

B11: Antibody 10 (antibody, human IgG1, V domains shown)
VH: QVQLVESGGGVVQPGGSLRLSCAVSGFSLTSYGIQWVRQAPGKGLEWVSVIWAGGSTNYNSALMSRFTISKDNSKSTLYLQMNSLRAEDTAVYYCARAYGYDGSWLAYWGQGTLVTVSS
VL: QIVLTQSPATLSLSPGERATLSCRASSSVSYMHWYQQKPGQAPRPLIFATSNLASGIPARFSGSGSGTDYTLTISSLEPEDFAVYYCQQWSSNPPTFGGGTKLEIK
notes: also called Ab10; Antibody 10-hIgG1
For B11, the binding result in assay [5] was “binds”. Moreover, the Kd in assay [4] came out at 7.6 nM.

B12: Antibody 9 (antibody, V domains shown)
VH: QVQLVESGGGVVQPGGSLRLSCAVSGFSLTSYGIQWVRQAPGKGLEWVSVIWAGGSTNYNSALMSRFTISKDNSKSTLYLQMNSLRAEDTAVYYCARAYGYDGSWLAYWGQGTLVTVSS
VL: EIVLTQSPATLSLSPGERATLSCRASSSVSYMHWYQQKPGQAPRPLIFATSNLASGIPARFSGSGSGTDFTLTISSLEPEDFAVYYCQQWSSNPPTFGGGTKLEIK
Consider B12, for which, in assay [1], the Kd was 8.8 nM.

These data come from US20210047420A1 (TUSK THERAPEUTICS, published 2021).
